Positions count from the first letter of the chain named. In names and notes the source's numbering stands.
T1: Nod1 V41Q (human, UniProt Q9Y239 1-953)
T1 construct: also called V41 Q point mutant in the CARD
T1 sequence: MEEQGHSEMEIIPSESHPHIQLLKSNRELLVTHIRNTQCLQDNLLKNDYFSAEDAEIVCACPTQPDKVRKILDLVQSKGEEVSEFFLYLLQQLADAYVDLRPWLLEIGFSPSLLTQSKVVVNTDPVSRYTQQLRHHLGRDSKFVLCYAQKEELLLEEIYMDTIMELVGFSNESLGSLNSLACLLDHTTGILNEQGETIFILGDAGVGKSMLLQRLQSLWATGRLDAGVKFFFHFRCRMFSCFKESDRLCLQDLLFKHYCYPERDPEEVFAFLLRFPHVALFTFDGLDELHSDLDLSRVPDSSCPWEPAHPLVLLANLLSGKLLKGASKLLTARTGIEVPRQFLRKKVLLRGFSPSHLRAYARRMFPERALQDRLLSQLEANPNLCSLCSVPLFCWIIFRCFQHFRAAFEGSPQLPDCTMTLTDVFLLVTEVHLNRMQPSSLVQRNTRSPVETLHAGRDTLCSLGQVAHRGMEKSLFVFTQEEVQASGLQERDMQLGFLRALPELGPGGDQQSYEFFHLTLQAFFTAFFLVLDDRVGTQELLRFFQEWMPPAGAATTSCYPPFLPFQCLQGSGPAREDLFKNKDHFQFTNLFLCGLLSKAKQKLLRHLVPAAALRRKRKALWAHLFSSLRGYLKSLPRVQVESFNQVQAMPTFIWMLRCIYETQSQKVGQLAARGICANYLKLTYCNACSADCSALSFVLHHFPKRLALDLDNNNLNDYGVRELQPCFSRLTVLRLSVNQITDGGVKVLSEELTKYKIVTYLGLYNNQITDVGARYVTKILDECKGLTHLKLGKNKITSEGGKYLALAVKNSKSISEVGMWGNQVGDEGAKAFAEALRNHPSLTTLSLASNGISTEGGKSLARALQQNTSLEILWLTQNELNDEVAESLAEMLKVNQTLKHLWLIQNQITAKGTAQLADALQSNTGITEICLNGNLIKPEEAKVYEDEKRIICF

T2: Nod1 (human, UniProt Q9Y239 1-953)
T2 construct: also called wild-type Nod1; WT Nod1
T2 sequence: T1 sequence with Q41V

T3: Nod1 mutant, residues 126-953 (human, UniProt Q9Y239 126-953)
T3 construct: also called mutant lacking the CARD
T3 sequence: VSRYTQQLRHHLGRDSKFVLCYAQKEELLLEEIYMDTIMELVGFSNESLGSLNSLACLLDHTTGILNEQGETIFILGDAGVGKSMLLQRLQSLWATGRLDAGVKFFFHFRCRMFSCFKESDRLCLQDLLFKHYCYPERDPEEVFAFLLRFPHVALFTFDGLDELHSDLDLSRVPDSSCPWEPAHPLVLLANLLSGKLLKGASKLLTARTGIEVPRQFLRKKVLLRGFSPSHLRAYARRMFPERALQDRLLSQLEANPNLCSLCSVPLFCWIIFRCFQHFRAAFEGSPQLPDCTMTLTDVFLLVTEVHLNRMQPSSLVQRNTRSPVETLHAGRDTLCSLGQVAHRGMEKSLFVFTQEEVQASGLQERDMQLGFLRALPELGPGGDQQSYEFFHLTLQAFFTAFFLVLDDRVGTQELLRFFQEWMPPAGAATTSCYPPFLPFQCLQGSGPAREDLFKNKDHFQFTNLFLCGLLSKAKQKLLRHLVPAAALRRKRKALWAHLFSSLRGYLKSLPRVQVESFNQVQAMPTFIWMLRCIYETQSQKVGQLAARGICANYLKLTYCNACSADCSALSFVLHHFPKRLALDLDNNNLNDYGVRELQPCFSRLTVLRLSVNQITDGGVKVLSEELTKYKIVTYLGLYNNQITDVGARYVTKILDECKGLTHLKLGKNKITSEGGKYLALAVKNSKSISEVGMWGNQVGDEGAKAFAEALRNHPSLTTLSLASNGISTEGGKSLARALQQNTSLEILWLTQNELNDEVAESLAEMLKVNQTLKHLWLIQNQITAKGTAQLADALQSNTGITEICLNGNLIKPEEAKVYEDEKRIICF

B1: Caspase-9 C287S (enzyme, UniProt P55211 1-416, looked up)
chain: MDEADRRLLRRCRLRLVEELQVDQLWDALLSRELFRPHMIEDIQRAGSGSRRDQARQLIIDLETRGSQALPLFISCLEDTGQDMLASFLRTNRQAAKLSKPTLENLTPVVLRPEIRKPEVLRPETPRPVDIGSGGFGDVGALESLRGNADLAYILSMEPCGHCLIINNVNFCRESGLRTRTGSNIDCEKLRRRFSSLHFMVEVKGDLTAKKMVLALLELAQQDHGALDCCVVVILSHGCQASHLQFPGAVYGTDGCPVSVEKIVNIFNGTSCPSLGGKPKLFFIQASGGEQKDHGFEVASTSPEDESPGSNPEPDATPFQEGLRTFDQLDAISSLPTPSDIFVSYSTFPGFVSWRDPKSGSWYVETLDDIFEQWAHSEDLQSLLLRVANAVSVKGIYKQMPGCFNFLRKKLFFKTS
notes: Named only once, in the sentence on Nod1 V41Q
B2: NIK (enzyme, UniProt Q99558 1-947, looked up)
chain: MAVMEMACPGAPGSAVGQQKELPKAKEKTPPLGKKQSSVYKLEAVEKSPVFCGKWEILNDVITKGTAKEGSEAGPAAISIIAQAECENSQEFSPTFSERIFIAGSKQYSQSESLDQIPNNVAHATEGKMARVCWKGKRRSKARKKRKKKSSKSLAHAGVALAKPLPRTPEQESCTIPVQEDESPLGAPYVRNTPQFTKPLKEPGLGQLCFKQLGEGLRPALPRSELHKLISPLQCLNHVWKLHHPQDGGPLPLPTHPFPYSRLPHPFPFHPLQPWKPHPLESFLGKLACVDSQKPLPDPHLSKLACVDSPKPLPGPHLEPSCLSRGAHEKFSVEEYLVHALQGSVSSGQAHSLTSLAKTWAARGSRSREPSPKTEDNEGVLLTEKLKPVDYEYREEVHWATHQLRLGRGSFGEVHRMEDKQTGFQCAVKKVRLEVFRAEELMACAGLTSPRIVPLYGAVREGPWVNIFMELLEGGSLGQLVKEQGCLPEDRALYYLGQALEGLEYLHSRRILHGDVKADNVLLSSDGSHAALCDFGHAVCLQPDGLGKSLLTGDYIPGTETHMAPEVVLGRSCDAKVDVWSSCCMMLHMLNGCHPWTQFFRGPLCLKIASEPPPVREIPPSCAPLTAQAIQEGLRKEPIHRVSAAELGGKVNRALQQVGGLKSPWRGEYKEPRHPPPNQANYHQTLHAQPRELSPRAPGPRPAEETTGRAPKLQPPLPPEPPEPNKSPPLTLSKEESGMWEPLPLSSLEPAPARNPSSPERKATVPEQELQQLEIELFLNSLSQPFSLEEQEQILSCLSIDSLSLSDDSEKNPSKASQSSRDTLSSGVHSWSSQAEARSSSWNMVLARGRPTDTPSYFNGVKVQIQSLNGEHLHIREFHRVKVGDIATGISSQIPAAAFSLVTKDGQPVRYDMEVPDSGIDLQCTLAPDGSFAWSWRVKHGQLENRP
notes: also called N1K
B3: Nod1 mutant, residues 649-953 (other)
chain: MPTFIWMLRCIYETQSQKVGQLAARGICANYLKLTYCNACSADCSALSFVLHHFPKRLALDLDNNNLNDYGVRELQPCFSRLTVLRLSVNQITDGGVKVLSEELTKYKIVTYLGLYNNQITDVGARYVTKILDECKGLTHLKLGKNKITSEGGKYLALAVKNSKSISEVGMWGNQVGDEGAKAFAEALRNHPSLTTLSLASNGISTEGGKSLARALQQNTSLEILWLTQNELNDEVAESLAEMLKVNQTLKHLWLIQNQITAKGTAQLADALQSNTGITEICLNGNLIKPEEAKVYEDEKRIICF
notes: also called the LRRs of Nod1; mutant containing the LRRs
B4: Caspase-9 (enzyme, UniProt P55211 1-416, looked up)
chain: B1 chain with S287C
notes: also called procaspase-9; procaspas-9

Assays:
[1] = molecular target: T1, Nod1 V41Q; assay: co-immunoprecipitation from co-transfected 293T cells, immunoblot
Source text: (§1) Both Ced-4 and Apaf-1 associate with their target caspases via their corresponding CARDs (Zou et al., Cell, 90:405 (1997); Hu et al., Proc. Natl. Acad. Sci. USA, 95:4386 (1998); ); Chinnaiyan et al., Nature, 388:728 (1997); Hu et al., Proc. Natl. Acad. Sci. USA, 95:4386 (1998); Srinivasula et al., Mol. Cell, 1:946 (1998); Chaudhary et al., J. Biol. Chem., 273:17708 (1998); Yang et al., Science, 281:1355 (1998)).

[2] = molecular target: T2, Nod1; assay: co-immunoprecipitation, tagged proteins transiently expressed in 293T cells
Source text: The CARD and its structurally related death effector domain (DED) are peptide motifs that mediate interactions between apoptosis-regulatory proteins (Science 281:1301 (1998); Hofmann et al., Trends Biochem. Sci. 22:155 (1998)).

[3] = molecular target: T4, RICK (UniProt O43353 1-540); assay: co-transfection of WT or mutant Nod1 and RICK in 293T cells
T4 construct: also called serine-threonine kinase with a CARD

[4] = molecular target: B4; assay: co-immunoprecipitation from co-transfected 293T cells, immunoblot
Source text: as §1

[5] = molecular target: T3, Nod1 mutant, residues 126-953; assay: as above
Source text: as §1

T4 sequence (O43353 whole entry): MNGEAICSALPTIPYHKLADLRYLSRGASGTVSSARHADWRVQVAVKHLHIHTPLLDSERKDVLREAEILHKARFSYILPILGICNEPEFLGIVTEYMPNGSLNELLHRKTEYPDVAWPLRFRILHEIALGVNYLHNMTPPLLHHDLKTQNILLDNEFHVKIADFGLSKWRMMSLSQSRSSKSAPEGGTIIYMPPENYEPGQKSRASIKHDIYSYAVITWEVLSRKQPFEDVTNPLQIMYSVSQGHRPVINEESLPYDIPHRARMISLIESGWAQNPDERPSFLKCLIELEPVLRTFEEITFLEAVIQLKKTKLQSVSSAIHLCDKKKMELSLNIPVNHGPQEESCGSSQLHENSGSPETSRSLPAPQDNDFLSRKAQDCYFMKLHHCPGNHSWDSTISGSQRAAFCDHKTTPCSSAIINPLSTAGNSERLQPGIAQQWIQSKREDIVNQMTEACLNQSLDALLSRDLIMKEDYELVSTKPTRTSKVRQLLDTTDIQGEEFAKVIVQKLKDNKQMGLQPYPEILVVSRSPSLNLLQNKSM

Binder: B1
- binding result [1]: no binding

Binder: B2
- binding result [2]: no binding

Binder: B3
- binding result [3]: no binding
- binding result [4]: no binding

Binder: B4
- binding result [5]: no binding

— patent publication US20030049732A1 (Human Genome Sciences, published 2003)
